According to PMC10864110:

B1: LINC00869 dsDNA (dsDNA)
DNA 1: TGTAAAGGGTGAGGCATATGAGGCTGCGGCGGGGCGGAGGGGCGTGAGCTTATACTTATGTTTATCTGGCAGAAGAAATGTTATG
DNA 2: CATAACATTTCTTCTGCCAGATAAACATAAGTATAAGCTCACGCCCCTCCGCCCCGCCGCAGCCTCATATGCCTCACCCTTTACA
B2: WDR74 dsDNA (dsDNA)
DNA 1: CGTTCCTGGAAGTACTGCAATACCAGGTCGATGCGTGGAGTGGACGGAGCAAGCTCCTATTCCATCTCCTATTTCCAAAAATCCA
DNA 2: TGGATTTTTGGAAATAGGAGATGGAATAGGAGCTTGCTCCGTCCACTCCACGCATCGACCTGGTATTGCAGTACTTCCAGGAACG
B3: CCND1 dsDNA (dsDNA)
DNA 1: CAGTAGCAGCGAGCAGCAGAGTCCGCACGCTCCGGCGAGGGGCAGAAGAGCGCGAGGGAGCGCGGGGCAGCAGAAGCGAGAGCCG
DNA 2: CGGCTCTCGCTTCTGCTGCCCCGCGCTCCCTCGCGCTCTTCTGCCCCTCGCCGGAGCGTGCGGACTCTGCTGCTCGCTGCTACTG

target: GST-PC4 WT (Homo sapiens, UniProt P53999 2-127); assay: EMSA

Binding result, no binding:
B1, B2, B3
